Measured values reported in patent publication US20170312332A1 (Stanford University, published 2017).
Ends that are not written are not given here.

Target: recombinant Drp1 (GST-Drp1) (human, UniProt O00429 1-736)
Assay: cell-based or functional assay

recombinant Drp1 (GST-Drp1), sequence (O00429 other isoform, or with tags, fused parts or gaps): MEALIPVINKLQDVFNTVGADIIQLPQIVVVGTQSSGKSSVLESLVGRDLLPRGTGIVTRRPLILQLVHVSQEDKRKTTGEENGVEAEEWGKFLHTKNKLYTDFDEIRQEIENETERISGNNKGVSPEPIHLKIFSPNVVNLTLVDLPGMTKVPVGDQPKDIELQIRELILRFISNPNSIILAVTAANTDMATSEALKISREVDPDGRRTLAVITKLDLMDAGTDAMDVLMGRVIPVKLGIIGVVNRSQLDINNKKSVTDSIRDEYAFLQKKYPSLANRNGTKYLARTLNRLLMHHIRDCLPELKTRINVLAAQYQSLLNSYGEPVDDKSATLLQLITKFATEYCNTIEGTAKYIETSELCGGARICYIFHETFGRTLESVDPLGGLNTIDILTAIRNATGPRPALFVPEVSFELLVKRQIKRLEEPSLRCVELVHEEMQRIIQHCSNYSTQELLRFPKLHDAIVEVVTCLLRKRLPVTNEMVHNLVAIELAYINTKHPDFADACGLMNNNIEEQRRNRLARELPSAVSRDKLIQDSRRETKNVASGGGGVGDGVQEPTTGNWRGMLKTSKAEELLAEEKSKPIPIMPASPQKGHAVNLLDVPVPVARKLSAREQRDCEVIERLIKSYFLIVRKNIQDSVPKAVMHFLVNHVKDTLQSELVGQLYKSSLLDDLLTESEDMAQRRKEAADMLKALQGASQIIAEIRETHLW

RRRQRRKKRGYGGKLSAREQRD-NH2 [P109]
GTPase activity of recombinant Drp1 (in vitro GTPase assay kit): 40 % inhibition
